According to patent publication US20210069342A1 (LEGOCHEM BIOSCIENCES, published 2021):

What was measured:
[1] = target: T1, human ROR1 expressed on the cell surface (human, UniProt Q01973 30-937); assay: flow cytometry on 697 cells (ALL), C2E3 IgG, FITC anti-human Fc detection
T1 construct: whole, on cells; also called cell surface-expressed ROR1 antigen; ROR1 on JeKo-1, Mino, CHO-human ROR1, MC38-human ROR1 and other cancer cell lines
Protocol: FACS analysis (FACSCalibur, BD Biosciences) was used to analyze the binding of the anti-ROR1 antibody of the present invention to ROR1 in the above cell lines.
Specifically, the respective cell lines were dissociated and washed in PBS, then the numbers of cells were counted and adjusted to 2×10⁵ cells/200 PBS. Then, they were treated with 10 /mL of the antibody of clone name C2E3 of the ROR1 monoclonal antibodies prepared in Embodiment 3, and reacted for 1 hour at 4° C. After the reaction, the cells were washed in PBS, then FITC-marked constant region (Fc) specific antibody (Goat anti-human IgG FITC conjugate, Fc specific, Sigma, F9512, concentration 20 mg/ml) was suspended in 2 /1×10⁵ cells/200 PBS and reacted for 1 hour at 4° C. After reacting, the cells were washed with PBS and analyzed with the FACSCalibur equipment. The negative control was only treated with FITC-marked constant region (Fc) specific antibody. To compare the degree of ROR1 expression among the respective cancer cell lines, the quotient of dividing the shifted readings for the experimental group treated with the ROR1 monoclonal antibody (C2E3) of the present invention by the shifted readings for the control group (MFI Ratio: MFI of anti-ROR1/MFI or 2nd Ab) is indicated.

[2] = target: T2, human ROR2 over-expressed on CHO cells (CHO-human ROR2) (human, UniProt Q01974 34-943); assay: flow cytometry on CHO-S cells transiently over-expressing human ROR2, FITC anti-human Fc detection, MFI ratio to 2nd Ab alone
T2 construct: whole, on cells; Negative control; also called family protein human ROR2
Description: For this experiment, using cell lines (FIG. 5 and FIG. 7, respectively) transiently (CHO-human ROR1, CHO-human ROR2, CHO-mouse ROR1) or stably (MC38-human ROR1) transfected with ROR1 gene to achieve artificial over-expression of ROR1 protein, an ROR1-expressing cell line (JeKo-1, Mino) (FIG. 6), a non ROR1-expressing cell line (MCF7) (FIG. 6) and a FACSCalibur (BD Biosciences) device was used to measure the degree to which anti-ROR1 antibody and ROR1 were bound, as follows. […] JeKo-1, Mino, CHO-human ROR1, CHO-mouse ROR1 and MC38-human ROR1 are all cell lines which express human ROR1 or mouse ROR1.
Specifically, after dissociating each cell line and washing in PBS, the number of cells was counted and adjusted to 2×10⁵ cells/200 PBS. Then the respective ROR1 monoclonal antibodies prepared in Embodiment 3 were diluted 5 times from 10 /mL or 10 /mL, then reacted for 1 hour at 4° C. After the reaction, the cells were washed in PBS, then FITC-marked constant region (Fc) specific antibody (Goat anti-human IgG FITC conjugate, Fc specific, Sigma, F9512, concentration 20 mg/ml) was suspended in 2 /1×10⁵ cells/200 PBS and reacted for 1 hour at 4° C. As for identification of the degree of expression of the transiently over-expressed human ROR1, human ROR2 and mouse ROR1, a commercially available FACS analysis antibody (anti-ROR1: R&D Systems, FAB 2000G, anti-ROR2: R&D, FAB20641P) was used. After reacting the cells were washed in PBS and analyzed using a FACSCalibur device. The negative control (2nd Ab) was only treated with FITC-marked constant region (Fc) specific antibody. The shifted readings for the respective experimental groups treated with ROR1 monoclonal antibody were compared against the shifted reading for the control group (MFI Ratio: MFI of anti-ROR1/MFI of 2nd Ab).

T1 sequence (Q01973 30-937): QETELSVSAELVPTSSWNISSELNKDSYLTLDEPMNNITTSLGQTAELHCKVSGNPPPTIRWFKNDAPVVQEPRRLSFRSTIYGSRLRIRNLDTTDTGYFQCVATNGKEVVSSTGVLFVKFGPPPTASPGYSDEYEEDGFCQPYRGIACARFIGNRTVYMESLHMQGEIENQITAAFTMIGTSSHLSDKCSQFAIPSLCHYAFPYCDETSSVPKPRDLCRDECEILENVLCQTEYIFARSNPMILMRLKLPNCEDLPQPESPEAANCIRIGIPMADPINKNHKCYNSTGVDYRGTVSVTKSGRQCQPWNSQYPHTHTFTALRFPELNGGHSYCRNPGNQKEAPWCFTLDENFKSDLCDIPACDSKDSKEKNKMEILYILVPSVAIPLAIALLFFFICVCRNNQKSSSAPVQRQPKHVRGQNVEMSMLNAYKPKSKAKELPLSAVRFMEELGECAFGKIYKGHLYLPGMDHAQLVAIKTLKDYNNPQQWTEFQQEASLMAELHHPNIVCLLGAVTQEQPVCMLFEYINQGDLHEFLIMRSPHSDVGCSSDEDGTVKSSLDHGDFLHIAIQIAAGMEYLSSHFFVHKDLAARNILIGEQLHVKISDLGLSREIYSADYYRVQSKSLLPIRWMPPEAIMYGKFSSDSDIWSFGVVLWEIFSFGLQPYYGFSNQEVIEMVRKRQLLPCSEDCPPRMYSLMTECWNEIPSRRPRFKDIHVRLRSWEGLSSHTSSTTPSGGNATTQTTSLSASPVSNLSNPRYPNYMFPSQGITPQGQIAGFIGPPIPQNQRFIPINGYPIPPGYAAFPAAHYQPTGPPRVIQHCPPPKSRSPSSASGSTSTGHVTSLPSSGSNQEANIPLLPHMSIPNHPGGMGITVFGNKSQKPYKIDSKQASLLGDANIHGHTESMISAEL
T2 sequence (Q01974 34-943): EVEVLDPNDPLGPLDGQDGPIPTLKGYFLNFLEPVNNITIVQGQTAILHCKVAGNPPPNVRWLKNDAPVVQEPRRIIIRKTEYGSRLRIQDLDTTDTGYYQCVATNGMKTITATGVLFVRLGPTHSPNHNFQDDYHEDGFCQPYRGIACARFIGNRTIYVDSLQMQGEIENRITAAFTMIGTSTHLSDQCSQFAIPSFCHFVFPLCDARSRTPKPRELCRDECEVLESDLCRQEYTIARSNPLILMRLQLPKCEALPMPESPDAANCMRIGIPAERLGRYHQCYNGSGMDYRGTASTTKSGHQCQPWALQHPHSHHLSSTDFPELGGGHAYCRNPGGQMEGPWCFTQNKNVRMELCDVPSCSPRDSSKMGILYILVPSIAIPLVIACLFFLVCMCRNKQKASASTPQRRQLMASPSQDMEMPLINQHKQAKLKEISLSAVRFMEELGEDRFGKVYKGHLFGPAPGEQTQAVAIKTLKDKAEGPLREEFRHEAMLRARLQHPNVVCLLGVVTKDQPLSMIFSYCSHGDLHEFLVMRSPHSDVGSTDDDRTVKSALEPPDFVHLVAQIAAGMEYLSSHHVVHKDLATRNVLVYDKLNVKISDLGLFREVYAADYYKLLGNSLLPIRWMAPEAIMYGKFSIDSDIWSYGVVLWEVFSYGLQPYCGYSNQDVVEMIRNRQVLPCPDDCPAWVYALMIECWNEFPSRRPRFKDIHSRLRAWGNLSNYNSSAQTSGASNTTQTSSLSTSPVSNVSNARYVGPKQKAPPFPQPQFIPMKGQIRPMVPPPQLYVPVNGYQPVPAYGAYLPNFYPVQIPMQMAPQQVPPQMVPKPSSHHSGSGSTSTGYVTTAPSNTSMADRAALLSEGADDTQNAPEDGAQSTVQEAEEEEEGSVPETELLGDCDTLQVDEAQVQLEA

B1: anti-ROR1 IgG antibody C2E3 (antibody, V domains shown)
VH: EVQLLESGGGLVQPGGSLRLSCAASGFTFSNYAMSWVRQAPGKGLEWVSSISHNSGSTYYADSVKGRFTISRDNSKNTLYLQMNSLRAEDTAVYYCAKFISARKSLGRSYSNGMDVWGQGTLVTVSS
VL: QSVLTQPPSASGTPGQRVTISCTGSSSNIGSNDVTWYQQLPGTAPKLLIYADSKRPSGVPDRFSGSKSGTSASLAISGLRSEDEADYYCGTWDYSLSGYVFGGGTKLTVLG
notes: Full IgG form (human IgG1 constant region, lambda light chain), expressed in CHO-S cells
- Mean Fold Ratio (MFI of anti-ROR1 / MFI of 2nd Ab) [1]: 12
- binding result [2]: no binding
